This passage reports abundance fitness results from the Human Domainome abundance scans (Beltran et al. 2025).

To fix the notation:
B1: Zinc finger MYM-type protein 3, residues 589 to 668; numbered along this chain, Q14202 (parent)
chain: LSCHYCHSLFSGKPEVLDWQDQVFQFCCRDCCEDFKRLRGVVSQCEHCRQEKLLHEKLRFSGVEKSFCSEGCVLLYKQDF

± gives the uncertainty stated by the source.

The variants in this data set derive from B1. In words: abundance fitness (aPCA) (normalised: wild type 0, dead -1); higher = more abundant; growth selection in yeast, the domain comes from the species named. Particulars: Homo sapiens.
With LSCHYCHSLFSGKPEVLDWQDQVFQFCCRDCCEDFKRLRGVVSQCEHCRQEKLLHEKLRFSGVEKSFCSEMCVLLYKQDF [G71M], the abundance fitness stood at 0.721 ± 0.24.

Take LSCHYCHSLFSGKPEVLDWQDQVFQFCCRDCCEDFKRLRGVVSQCEHCRQEKLLEEKLRFSGVEKSFCSEGCVLLYKQDF [H55E]: the abundance fitness is -0.392 ± 0.14.

Consider LSCHYCHSLFSGKPEVLDWQDQVFQFCCRDCCEDFKRLRGVVSQCEHCRQEKLLKEKLRFSGVEKSFCSEGCVLLYKQDF [H55K], for which the abundance fitness was -0.04 ± 0.17.

For the variant LSCHYCHSTFSGKPEVLDWQDQVFQFCCRDCCEDFKRLRGVVSQCEHCRQEKLLHEKLRFSGVEKSFCSEGCVLLYKQDF [L9T], the abundance fitness worked out at 0.083 ± 0.042.

As to LSCHYCHSLFSIKPEVLDWQDQVFQFCCRDCCEDFKRLRGVVSQCEHCRQEKLLHEKLRFSGVEKSFCSEGCVLLYKQDF [G12I], the abundance fitness is -0.395 ± 0.075.

For LSCHYCHSLFSCKPEVLDWQDQVFQFCCRDCCEDFKRLRGVVSQCEHCRQEKLLHEKLRFSGVEKSFCSEGCVLLYKQDF [G12C], the abundance fitness was -0.272 ± 0.067.

As for LSCHYCHSLFSGKPEVLDWQDQVFQFCCRDCCEDFKRLRGVVSQCEHCRQEKLLHEKLRFSGVAKSFCSEGCVLLYKQDF [E64A], the abundance fitness was -0.571 ± 0.23.

For the variant LSCHYCHSLFSGKPWVLDWQDQVFQFCCRDCCEDFKRLRGVVSQCEHCRQEKLLHEKLRFSGVEKSFCSEGCVLLYKQDF [E15W], the abundance fitness was -0.033 ± 0.045.

As to LSCHYCHSLFSGKPEVLDWQDQVFQFCCRDCCRDFKRLRGVVSQCEHCRQEKLLHEKLRFSGVEKSFCSEGCVLLYKQDF [E33R], the abundance fitness is -0.193 ± 0.04.

With LSCHYCHSLFSGKPEVLDWQRQVFQFCCRDCCEDFKRLRGVVSQCEHCRQEKLLHEKLRFSGVEKSFCSEGCVLLYKQDF [D21R], the abundance fitness is -0.075 ± 0.044.

In the case of LSCHYCHSLFSGKPEVLDWQDQVFQFCCRDCCEDFKRLRGVVSQCEHCRQEKLLHEKLRFWGVEKSFCSEGCVLLYKQDF [S61W], the abundance fitness is -0.467 ± 0.2.

With LSCHYCHSLFSGKPEVLDWQDQVFQFCCRDCCEDFKRLRGVVSQCEHCRQEKLLHEKLRFVGVEKSFCSEGCVLLYKQDF [S61V], the abundance fitness was -0.389 ± 0.18.

Regarding LSCHYCHSLFSGKPEVLDWQDQVFQFCCRDCCEDFKRLRGVVSQCEHCRQEKLLHEKLRFSGVEKSFCEEGCVLLYKQDF [S69E], the abundance fitness was -0.341 ± 0.15.

With LSCHYCHSLFSGKPEVLDWQDQVFQFCCRDCCEDFKRLRGVVSQCEHCRQEKLLHEKLRFSGVEKSFCCEGCVLLYKQDF [S69C], the abundance fitness came to 0.093 ± 0.19.

With LSCHYCHSLFSGKPEVLDWQDQVFQFCCRDCCEDFKRLRGVVSQCEHCRQEKLLHEKLRFSGVEKSFCREGCVLLYKQDF [S69R], the abundance fitness was -0.456 ± 0.11.

As for LSCHYCHSLFSGKPEVYDWQDQVFQFCCRDCCEDFKRLRGVVSQCEHCRQEKLLHEKLRFSGVEKSFCSEGCVLLYKQDF [L17Y], the abundance fitness is -0.202 ± 0.14.

On to LSCHYCHSLFSGKPEVLDWQDQVFQFCCRDCCEDFKRLRGVVSQCEHCRQEKLLHEKLRFSGVEKSFCSEGCVLLYKQDL [F80L], for which the abundance fitness was found to be 0.5 ± 0.12.

For the variant LSCHYCHSLFSGKPEVLDWQDQVFQFCCRDCCEDFKWLRGVVSQCEHCRQEKLLHEKLRFSGVEKSFCSEGCVLLYKQDF [R37W], the abundance fitness is -0.065 ± 0.27.

For LSCHYCHSLFSGKPEVLDWQDQVFQFCCRDCCEDFKALRGVVSQCEHCRQEKLLHEKLRFSGVEKSFCSEGCVLLYKQDF [R37A], the abundance fitness was 0.057 ± 0.16.

Take LSCHYCHSLFSGKPEVLDWQDQVFQFCCRDCCEDFKRLRGVVSQCEHCFQEKLLHEKLRFSGVEKSFCSEGCVLLYKQDF [R49F]: the abundance fitness is -0.38 ± 0.2.

Consider LSCHYCHSLFSGKPEVLDWQDQNFQFCCRDCCEDFKRLRGVVSQCEHCRQEKLLHEKLRFSGVEKSFCSEGCVLLYKQDF [V23N], for which the abundance fitness amounted to 0.169 ± 0.056.

Take GSCHYCHSLFSGKPEVLDWQDQVFQFCCRDCCEDFKRLRGVVSQCEHCRQEKLLHEKLRFSGVEKSFCSEGCVLLYKQDF [L1G]: the abundance fitness was -0.034 ± 0.056.

Take LSCHYCHSLFSGKPEVLDWQDQVFQKCCRDCCEDFKRLRGVVSQCEHCRQEKLLHEKLRFSGVEKSFCSEGCVLLYKQDF [F26K]: the abundance fitness is -0.524 ± 0.075.

Take LSCHYCHSLFSGKPEVLDWQDQVFQFCCRDCCEDFKRLRGVVSQCEHCRQEKLLHEKLRFSGVEKSFCSEGCVLLYKWDF [Q78W]: the abundance fitness is -0.698 ± 0.21.

On to LSCHYCHSLFSGKPEVLDWQDQVEQFCCRDCCEDFKRLRGVVSQCEHCRQEKLLHEKLRFSGVEKSFCSEGCVLLYKQDF [F24E], for which the abundance fitness is -0.143 ± 0.045.

Regarding LSCHYCHSLFSGKPEVLDWQDQVGQFCCRDCCEDFKRLRGVVSQCEHCRQEKLLHEKLRFSGVEKSFCSEGCVLLYKQDF [F24G], the abundance fitness is -0.136 ± 0.042.

Regarding LSCHYCHSLFSGKPEVLDWQDQVLQFCCRDCCEDFKRLRGVVSQCEHCRQEKLLHEKLRFSGVEKSFCSEGCVLLYKQDF [F24L], the abundance fitness came out at 0.203 ± 0.041.

For the variant LSCHYCHSLFSGKPEVLDNQDQVFQFCCRDCCEDFKRLRGVVSQCEHCRQEKLLHEKLRFSGVEKSFCSEGCVLLYKQDF [W19N], the abundance fitness amounted to 0.225 ± 0.1.

Consider LSCHYCHSLFSGKPEVLDWQDQVFQFCCRDCCEDFKRLRGVVSQCEHCRQEKLLHEKLRFSGVEKSFCSEGMVLLYKQDF [C72M], for which the abundance fitness is -0.514 ± 0.28.

With LSCHYCHSLFSGKPEVLDWQDQVFQFCCRDCCEDFKRLRGVVSQCTHCRQEKLLHEKLRFSGVEKSFCSEGCVLLYKQDF [E46T], the abundance fitness was determined as 0.24 ± 0.22.

For LSCHYCHSLFSGKPEVLDWQDQVFQFCCRDCCEDFKRLRGVVSQCEHCRQEKLLHEKLRFSGVEESFCSEGCVLLYKQDF [K65E], the abundance fitness was -1.07 ± 0.26.

Take LSCHYCHSLFSGKPEVLDWQDQVFQFCCRDCCEDFKRLRGVVSQCEHCRQEKLLHEKLRFSGVEGSFCSEGCVLLYKQDF [K65G]: the abundance fitness is -0.779 ± 0.16.

Consider LSCHDCHSLFSGKPEVLDWQDQVFQFCCRDCCEDFKRLRGVVSQCEHCRQEKLLHEKLRFSGVEKSFCSEGCVLLYKQDF [Y5D], for which the abundance fitness was -0.615 ± 0.07.

As for LSCHFCHSLFSGKPEVLDWQDQVFQFCCRDCCEDFKRLRGVVSQCEHCRQEKLLHEKLRFSGVEKSFCSEGCVLLYKQDF [Y5F], the abundance fitness is 0.095 ± 0.051.
